Measurements from PMC6194124, “Mannosidase activity of EDEM1 and EDEM2 depends on an unfolded state of their glycoprotein substrates” (Communications Biology, 2018).

Molecular target: T1, EDEM1-HA (UniProt Q925U4 1-652)
T1 construct: source: HEK 293, transiently transfected (pCMVsport2), in lysate
T1 sequence (looked up): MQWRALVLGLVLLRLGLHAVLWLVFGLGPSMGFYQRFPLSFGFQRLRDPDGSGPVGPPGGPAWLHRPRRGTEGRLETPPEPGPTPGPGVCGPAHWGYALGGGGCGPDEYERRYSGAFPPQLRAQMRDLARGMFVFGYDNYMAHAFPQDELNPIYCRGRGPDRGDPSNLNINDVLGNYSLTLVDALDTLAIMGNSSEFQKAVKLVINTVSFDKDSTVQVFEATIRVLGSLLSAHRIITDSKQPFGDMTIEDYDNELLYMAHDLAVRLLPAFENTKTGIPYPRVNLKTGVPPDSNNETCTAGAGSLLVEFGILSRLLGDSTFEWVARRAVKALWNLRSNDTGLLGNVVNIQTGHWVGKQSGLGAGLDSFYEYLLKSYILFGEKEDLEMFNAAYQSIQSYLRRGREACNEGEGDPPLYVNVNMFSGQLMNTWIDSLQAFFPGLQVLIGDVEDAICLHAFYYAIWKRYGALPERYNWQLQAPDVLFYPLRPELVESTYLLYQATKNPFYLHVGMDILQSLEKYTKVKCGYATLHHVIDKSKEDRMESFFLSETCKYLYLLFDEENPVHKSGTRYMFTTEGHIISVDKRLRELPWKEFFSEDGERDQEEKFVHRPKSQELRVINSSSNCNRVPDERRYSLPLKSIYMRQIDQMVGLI
Experiment: co-IP; HEK 293 cells expressing EDEM1-HA or EDEM2-HA with FLAG-TXNDC11 or FLAG-PDI; lysed in mild conditions (1% NP-40, 50 mM Tris/HCl pH 8, 150 mM NaCl); immunoprecipitated with anti-EDEM1 or anti-EDEM2, immunoblotted with anti-FLAG
Details: partners not purified

B1: FLAG-PDI (enzyme)
chain: not shown
notes: mammalian protein disulfide isomerase (PDI); vector a gift from E. Avezov; also called protein disulfide isomerase; source: HEK 293, transiently transfected, in lysate
fold weaker coIP than with TXNDC11: ~15 fold
